# Assay results as given in the nanobody polyreactivity screen of Harvey et al. (2022).
# Test: yeast display, Sf9 membrane polyspecificity reagent, FACS + sequencing; frameworks hold sequencing errors
# Summary of the method: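 A nanobody's polyreactivity label depends on the gate it was sorted from. Yeast display cells were stained with 10% biotinylated, detergent-solubilized Sf9 membrane reagent for 1 hour at 4 °C, enriched on streptavidin microbeads and sorted by FACS. The low and high (top ~1%) gates were set on anti-HA fluorescence for expression and streptavidin fluorescence for reagent binding.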
row,Sequence,polyreactivity (PSR sort gate)
1,QVQLVESGGGLVQAGGSLRLSCAASGSTVRRYAMGWYRQAPGKERELVATISSGGRTNYADSVKGRFTISRDNAKNTVYLEMNSLKPEDTGVYYCAARPYFYERSAGYYWGQGTQVTVSS,high polyreactivity
2,QVQLVESGGGLVQAGGSLRLSCAASGSTVRYNAMGWYRQARGIERELVAAISYGSSTNYADSVKGRFTISRDNAKNTVFLQMNSLKPEDTAVYYCAAQPGYYDDFYYWGHGTQVTVSS,low polyreactivity
3,QVQLVESGGGLVQAGGSLRLSCAASGSTVYASVMGWSRQAPGKARELVAAITSAGSTDYADSVKGRFTISRDNAKNTVYLQMNSRKPEDTAVYYCAADAYTDSPYYKYDYWGQGTQVTVSS,low polyreactivity
4,QVQLVESGGGLVQAGGSLRLSCAASGSTWVYAMGWYRQAPGKERELFAAITVSGGSTYYADSVKGRFTISRDNAKNTVYLQMNSQKPEDPAVYYCAAYDSYRKFKYLGQGTQVTVSS,high polyreactivity
5,QVQLVESGGGLVQAGGSLRLSCAASGSTYAAKTMGWYRQAPGKERELVAAITVRGGSTYYADSVKGRFTISRDNAKNTVYLQMNSLKPEDTAVYYCATRHPARRDYWGQGTQVTVSS,low polyreactivity
6,QVQLVESGGGLVQAGGSLRLSCAASGSTYAVNVMGWYRQAPGKERELVATITYRDGRTYYADSVKGRFTISRDNAKNTVYLQMNSLKPEDTAVYYCAADAYRAQGDYWGQGTQVTVSS,low polyreactivity
7,QVQLVESGGGLVQAGGSLRLSCAASGSTYEIYAMGWYRQAPGKDRELVAAISSGGSTNYADSVKGRFTISRDNAKNTVYLQMNSLKPEDTAVYYCVYAIQFDYWGQGTQVTVSS,low polyreactivity
8,QVQLVESGGGLVQAGGSLRLSCAASGSTYENAMGWYRQAPGKERELVAVISRSGGSTYYADSVKGRFTISRDNAKNTVYLQMNSLNPEDTAVYYCATVYSAWSWVHGYYVAMDYWGQGTQVTVSS,high polyreactivity
9,QVQLVESGGGLVQAGGSLRLSCAASGSTYGRNARGWYRQAPGKERELVAAISSGGRTYYADSVKGRFTISRDNAKNTVYLQMNSLKPEDTAVYYCARDDYGTLVQLYGRGFNYWGQGTQVTVSS,low polyreactivity
10,QVQLVESGGGLVQAGGSLRLSCAASGSTYNAMGWYRQAPGKEREFVAAISWGGGSTYYADSVKGRFTISRDNAKNTVYLQMNSLKPEDTAVYYCAKTPNYRIRHDYWGQGTQVTVSS,low polyreactivity
11,QVQLVESGGGLVQAGGSLRLSCAASGSTYPSYAMGWYRQAPGKERELVAAINSGGSTNYADSVKGRFTISRDNAKNTVYLQMNSLKPEDTAVYYCAASVYGQHAGPGRWYTFYYWGQGTQVTVSS,low polyreactivity
12,QVQLVESGGGLVQAGGSLRLSCAASGSTYVSNAMGWYRQAPGKERELVAAISKSGGSTYYGDSVKGRFSISRDTAKNTVYLQMNSLKPEDTAVYYCAASPARYWYGGKEYDYWGQGTQVTVSS,high polyreactivity
13,QVQLVESGGGLVQAGGSLRLSCAASGSTYYNAMGWYRQAPRKERELVAAIRFRSGSTYYADSVKGRFTISRDNAKITVYFQMNSLKPEDTAVYYCAADNKRSWRYAYNYWGQGTQVTVSS,high polyreactivity
14,QVQLVESGGGLVQAGGSLRLSCAASGSTYYRYTMGSYRQAPGKERELLAAITSGGGTDYADSVKGRFTISRDNAKNTVYLQMNSLKPEDTAVYYCAAEGSWYSYPDYDYWGQGTQVTVSS,low polyreactivity
15,QVQLVESGGGLVQAGGSLRLSCAASGSTYYTYAMGWYRQAPGKERELVAAITYSDGDTYYADSVKGRFTISRDNAKHTVYLQMNSLKPEDTAVYYCAADYQGQPGTGNLEYWGQGTQVTVSS,low polyreactivity
16,QVQLVESGGGLVQAGGSLRLSCAASGSTYYYNAMGWYRQAPGKERELVAAIRTSGGRTYYADSVKGRFTISRDNAKNTVFLQMMSLKPEDTAVYFCADDGTDVHYTYDYWGQGTLVTVSS,low polyreactivity
17,QVQLVESGGGLVQAGGSLRLSCAASGSYLRYYAMGWYRQAAGKERELVAAISRSVTNTYYADSVKGRFTISRDYAKNTVYLQMNSLKPEDTAVDYCARVQYVRNVQYRYGGWYTRYYWGQGTQVTVSS,high polyreactivity
